Data published in the supplement of paper PMC10201428.
± gives the standard deviation of the averaged measurements.

Tests used:
[1] = system: VchCAST RNA-guided transposition machinery (E. coli BL21(DE3) host, lacZ target); assay: relative integration efficiency (T-LR orientation) vs wild-type transposon end (log2 (normalized fold change)); transposon end mutated: right end (5 bp flank + 75 bp right end); higher = more efficient transposition
How it was run: (§1)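 Pools of 1549 left-end or 1849 right-end barcoded transposon variants were cloned into a pUC57 mini-transposon donor and co-transformed into E. coli BL21(DE3) with a T7-driven effector plasmid carrying a CRISPR array, tniQ-cas8-cas7-cas6 and tnsA-tnsB-tnsC. Plating used 0.1 mM IPTG at 37°C for 18 h, and input plasmids and genomic integration junctions were PCR-amplified for Illumina sequencing, with two biological output replicates and four reference barcodes. Relative integration efficiency is the log-transformed fold change of output over input barcode abundance, normalised to the reference barcodes.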

[2] = system: VchCAST RNA-guided transposition machinery (E. coli BL21(DE3) host, lacZ target); assay: relative integration efficiency (T-RL orientation) vs wild-type transposon end (log2 (normalized fold change)); transposon end mutated: right end (5 bp flank + 75 bp right end); higher = more efficient transposition
How it was run: as §1

Sequence	relative integration efficiency (log2) [1]	relative integration efficiency (log2) [2]
ACATTTGTTGATACAACCATAAAATGATAATTACACCCATAAATTGATAATTATCAACAAACGCCCGGTCGCGGTACTCTGATCATAGTCAGACCAACATTGCTACGACCCGTATTCGCACCGACAC	2.66 ± 0.038	-0.287 ± 0.0067
ACATTTGTTGATACAACCATAAAATGATAATTACACCCATAAATTGATAATTATCAACAACATAAATTGATATTGCCTCTGATCATAGTCAGACCAACATTGCTACGACCCGTATTCGCACCGACAC	1.36 ± 0.2	-0.911 ± 0.21
ACATTTGTTGATACAACCATAAAATGATAATTACACCCATAAATTGATAATTATCAACACCCATAAATTGATATTGCCTCTGATCATAGTCAGACCAACATTGCTACGACCCGTATTCGCACCGACA	0.619 ± 0.036	-0.35 ± 0.052
ACATTTGTTGATACAACCATAAAATGATAATTACACCCATAAATTGATAATTATCAACCCCATAAATTGATATTGCCTCTGATCATAGTCAGACCAACATTGCTACGACCCGTATTCGCACCGACAC	1.26 ± 0.17	-0.731 ± 0.18
ACATTTGTTGATACAACCATAAAATGATAATTACACCCATAAATTGATAATTATCACAAAACGCCCGGTCGCGGTAAGAGGATCATAGTCAGACCAACATTGCTACGACCCGTATTCGCACCGACAC	2.81 ± 0.094	-0.437 ± 0.16
ACATTTGTTGATACAACCATAAAATGATAATTACACCCATAAATTGATAATTATCACAAAACTAAATTGATATTGCCTCTGATCATAGTCAGACCAACATTGCTACGACCCGTATTCGCACCGACAC	2.45 ± 0.22	-0.531 ± 0.15
ACATTTGTTGATACAACCATAAAATGATAATTACACCCATAAATTGATAATTATCACAAACATAAATTGATATTGCCTCTGATCATAGTCAGACCAACATTGCTACGACCCGTATTCGCACCGACAC	0.898 ± 0.13	-0.114 ± 0.033
ACATTTGTTGATACAACCATAAAATGATAATTACACCCATAAATTGATAATTATCACACAAATAAATTGATATTGCCTCTGATCATAGTCAGACCAACATTGCTACGACCCGTATTCGCACCGACAC	2.06 ± 0.028	-1.11 ± 0.18
ACATTTGTTGATACAACCATAAAATGATAATTACACCCATAAATTGATAATTATCACACAACGAAATTGATATTGCCTCTGATCATAGTCAGACCAACATTGCTACGACCCGTATTCGCACCGACAC	2.18 ± 0.14	-0.936 ± 0.18
ACATTTGTTGATACAACCATAAAATGATAATTACACCCATAAATTGATAATTATCACACAACGCCCGGTCGCGGTAAGAGGATCATAGTCAGACCAACATTGCTACGACCCGTATTCGCACCGACAC	2.32 ± 0.24	-0.696 ± 0.091
ACATTTGTTGATACAACCATAAAATGATAATTACACCCATAAATTGATAATTATCACACCACGCAATTGATATTGCCTCTGATCATAGTCAGACCAACATTGCTACGACCCGTATTCGCACCGACAC	2.1 ± 0.088	-0.677 ± 0.11
ACATTTGTTGATACAACCATAAAATGATAATTACACCCATAAATTGATAATTATCACACCACGCCCGGTCGCGGTAAGAGGATCATAGTCAGACCAACATTGCTACGACCCGTATTCGCACCGACAC	2.46 ± 0.034	-0.546 ± 0.089
ACATTTGTTGATACAACCATAAAATGATAATTACACCCATAAATTGATAATTATCACACCACTAAATTGATATTGCCTCTGATCATAGTCAGACCAACATTGCTACGACCCGTATTCGCACCGACAC	2.35 ± 0.27	-0.503 ± 0.044
ACATTTGTTGATACAACCATAAAATGATAATTACACCCATAAATTGATAATTATCACACCCAGCCCGGTCGCGGTAAGAGGATCATAGTCAGACCAACATTGCTACGACCCGTATTCGCACCGACAC	2.65 ± 0.059	-0.344 ± 0.16
ACATTTGTTGATACAACCATAAAATGATAATTACACCCATAAATTGATAATTATCACACCCATAAAGGTCGCGGTAAGAGGATCATAGTCAGACCAACATTGCTACGACCCGTATTCGCACCGACAC	2.16 ± 0.14	-0.82 ± 0.057
ACATTTGTTGATACAACCATAAAATGATAATTACACCCATAAATTGATAATTATCACACCCATAAATGTCGCGGTAAGAGGATCATAGTCAGACCAACATTGCTACGACCCGTATTCGCACCGACAC	2.19 ± 0.15	-0.671 ± 0.0087
ACATTTGTTGATACAACCATAAAATGATAATTACACCCATAAATTGATAATTATCACACCCATAAATTGAGCGGTAAGAGGATCATAGTCAGACCAACATTGCTACGACCCGTATTCGCACCGACAC	1.6 ± 0.023	-0.428 ± 0.035
ACATTTGTTGATACAACCATAAAATGATAATTACACCCATAAATTGATAATTATCACACCCATAAATTGATACTCTGATCATAGTCAGACCAACATTGCTACGACCCGTATTCGCACCGACACTGAC	0.201 ± 0.14	0.0156 ± 0.031
ACATTTGTTGATACAACCATAAAATGATAATTACACCCATAAATTGATAATTATCACACCCATAAATTGATAGGTAAGAGGATCATAGTCAGACCAACATTGCTACGACCCGTATTCGCACCGACAC	0.884 ± 0.061	-0.281 ± 0.02
ACATTTGTTGATACAACCATAAAATGATAATTACACCCATAAATTGATAATTATCACACCCATAAATTGATATCTCTGATCATAGTCAGACCAACATTGCTACGACCCGTATTCGCACCGACACTGA	-0.209 ± 0.13	-0.049 ± 0.013
ACATTTGTTGATACAACCATAAAATGATAATTACACCCATAAATTGATAATTATCACACCCATAAATTGATATGTAAGAGGATCATAGTCAGACCAACATTGCTACGACCCGTATTCGCACCGACAC	0.00487 ± 0.23	-0.111 ± 0.0046
ACATTTGTTGATACAACCATAAAATGATAATTACACCCATAAATTGATAATTATCACACCCATAAATTGATATTCGGACTGATCATAGTCAGACCAACATTGCTACGACCCGTATTCGCACCGACAC	0.106 ± 0.13	-0.0234 ± 0.0045
ACATTTGTTGATACAACCATAAAATGATAATTACACCCATAAATTGATAATTATCACACCCATAAATTGATATTCTCTGATCATAGTCAGACCAACATTGCTACGACCCGTATTCGCACCGACACTG	-0.29 ± 0.067	-0.0876 ± 0.015
ACATTTGTTGATACAACCATAAAATGATAATTACACCCATAAATTGATAATTATCACACCCATAAATTGATATTGAAGAGGATCATAGTCAGACCAACATTGCTACGACCCGTATTCGCACCGACAC	-0.000932 ± 0.33	-0.00509 ± 0.15
ACATTTGTTGATACAACCATAAAATGATAATTACACCCATAAATTGATAATTATCACACCCATAAATTGATATTGAAGATGATCATAGTCAGACCAACATTGCTACGACCCGTATTCGCACCGACAC	0.0825 ± 0.095	0.3393 ± 0.002
ACATTTGTTGATACAACCATAAAATGATAATTACACCCATAAATTGATAATTATCACACCCATAAATTGATATTGCAGAGGATCATAGTCAGACCAACATTGCTACGACCCGTATTCGCACCGACAC	-0.044 ± 0.11	0.0202 ± 0.033
ACATTTGTTGATACAACCATAAAATGATAATTACACCCATAAATTGATAATTATCACACCCATAAATTGATATTGCAGCTGATCATAGTCAGACCAACATTGCTACGACCCGTATTCGCACCGACAC	0.0166 ± 0.64	0.131 ± 0.028
